The source of these data is patent US20230279089A1.

Assay in all cases: cell-based or functional assay
The target in test [1] is endogenous BMP1 of human primary cardiac fibroblasts (human), P13497.
In test [2] the target is BMP1/TLL activity in human serum.
Test [3] concerns the target BMP1/TLL activity in mouse plasma.
Test [4] concerns the target BMP1/TLL activity in rat plasma.

Sequence of endogenous BMP1 of human primary cardiac fibroblasts (human), P13497 (P13497 121-986): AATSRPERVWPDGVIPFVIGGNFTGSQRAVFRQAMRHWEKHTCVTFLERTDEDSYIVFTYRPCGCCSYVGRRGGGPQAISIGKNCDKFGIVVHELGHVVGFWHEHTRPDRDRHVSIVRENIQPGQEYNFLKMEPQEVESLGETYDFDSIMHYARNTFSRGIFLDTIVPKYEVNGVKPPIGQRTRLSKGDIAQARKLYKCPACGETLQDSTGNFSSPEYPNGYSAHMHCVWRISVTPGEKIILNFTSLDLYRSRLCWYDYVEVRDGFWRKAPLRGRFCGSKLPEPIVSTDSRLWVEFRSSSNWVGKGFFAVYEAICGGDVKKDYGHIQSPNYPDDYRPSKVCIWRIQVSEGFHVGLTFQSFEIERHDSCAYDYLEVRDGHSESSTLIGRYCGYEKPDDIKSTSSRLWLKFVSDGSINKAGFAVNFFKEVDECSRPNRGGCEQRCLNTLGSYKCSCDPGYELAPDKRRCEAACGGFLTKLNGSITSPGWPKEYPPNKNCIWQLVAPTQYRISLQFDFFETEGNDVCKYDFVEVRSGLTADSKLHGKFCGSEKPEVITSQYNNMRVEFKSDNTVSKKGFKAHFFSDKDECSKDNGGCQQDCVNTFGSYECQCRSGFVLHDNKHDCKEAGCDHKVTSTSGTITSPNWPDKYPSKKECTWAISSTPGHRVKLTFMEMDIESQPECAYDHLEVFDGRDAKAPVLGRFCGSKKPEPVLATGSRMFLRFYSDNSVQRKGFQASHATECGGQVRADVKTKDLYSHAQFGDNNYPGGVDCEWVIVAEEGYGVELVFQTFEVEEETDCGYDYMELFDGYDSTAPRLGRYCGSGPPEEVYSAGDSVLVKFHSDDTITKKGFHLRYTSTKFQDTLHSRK

B1: 13Y039-4B06-4334 human variable region on mouse IgG2a LAGA Fc, mouse cKappa (Compound A) (antibody)
heavy: QVQLVQSGAEVKKPGASVKVSCKASGYTFLGYYMSWVRQAPGQGLEWMGWINPLSGETNYAQKFQGRVTMTRDTSISTAYMELSRLRSDDTAVYYCARDTGELDGMNWYFDLWGRGTLVTVSSAKTTAPSVYPLAPVCGDTTGSSVTLGCLVKGYFPEPVTLTWNSGSLSSGVHTFPAVLQSDLYTLSSSVTVTSSTWPSQSITCNVAHPASSTKVDKKIEPRGPTIKPCPPCKCPAPNLAGAPSVFIFPPKIKDVLMISLSPIVTCVVVDVSEDDPDVQISWFVNNVEVHTAQTQTHREDYNSTLRVVSALPIQHQDWMSGKEFKCKVNNKDLPAPIERTISKPKGSVRAPQVYVLPPPEEEMTKKQVTLTCMVTDFMPEDIYVEWTNNGKTELNYKNTEPVLDSDGSYFMYSKLRVEKKNWVERNSYSCSVVHEGLHNHHTTKSFSRTPGK
light: EIVLTQSPATLSLSPGERATLSCRASQSVSSYLAWYQQKPGQAPRLLIYDASNRATGIPARFSGSGSGTDFTLTISSLEPEDFAVYYCQQSDSWPPTFGGGTKVEIKRADAAPTVSIFPPSSEQLTSGGASVVCFLNNFYPKDINVKWKIDGSERQNGVLNSWTDQDSKDSTYSMSSTLTLTKDEYERHNSYTCEATHKTSTSPIVKSFNRNEC
On to B1, for which the pIC50, scar-in-a-jar (SIJ) assay in test [1] was 9.8. This molecule also displayed a pIC50, FRET enzyme activity, Human serum (n = 1) in test [2] of 10.1. For the same molecule, the pIC50, FRET enzyme activity, Mouse plasma (n = 1) in test [3] worked out at 7.5.

B2: 13Y039-4B06-4334 human variable region on rat IgG2b LAGA Fc and rat Kappa (Compound C) (antibody)
heavy: QVQLVQSGAEVKKPGASVKVSCKASGYTFLGYYMSWVRQAPGQGLEWMGWINPLSGETNYAQKFQGRVTMTRDTSISTAYMELSRLRSDDTAVYYCARDTGELDGMNWYFDLWGRGTLVTVSSAQTTAPSVYPLAPGCGDTTSSTVTLGCLVKGYFPEPVTVTWNSGALSSDVHTFPAVLQSGLYTLTSSVTSSTWPSQTVTCNVAHPASSTKVDKKVERRNGGIGHKCPTCPTCHKCPVPELAGAPSVFIFPPKPKDILLISQNAKVTCVVVDVSEEEPDVQFSWFVNNVEVHTAQTQPREEQYNSTFRVVSALPIQHQDWMSGKEFKCKVNNKALPSPIEKTISKPKGLVRKPQVYVMGPPTEQLTEQTVSLTCLTSGFLPNDIGVEWTSNGHIEKNYKNTEPVMDSDGSFFMYSKLNVERSRWDSRAPFVCSVVHEGLHNHHVEKSISRPPGK
light: EIVLTQSPATLSLSPGERATLSCRASQSVSSYLAWYQQKPGQAPRLLIYDASNRATGIPARFSGSGSGTDFTLTISSLEPEDFAVYYCQQSDSWPPTFGGGTKVEIKRADAAPTVSIFPPSTEQLATGGASVVCLMNNFYPRDISVKWKIDGTERRDGVLDSVTDQDSKDSTYSMSSTLSLTKADYESHNLYTCEVVHKTSSSPVVKSFNRNEC
Turning to B2, the pIC50, FRET enzyme activity, Human serum (n = 1) in test [2] stood at 8.7. The molecule further registered a pIC50, FRET enzyme activity, Rat plasma (n = 2) in test [4] of 9.1.
